{
  "source": "patent US20120321699A1",
  "key": {"centromere B autoantigen [1]": {"molecular_target": "centromere B autoantigen", "experiment": "Athena assay, mAb 6.25 ug/ml; positive >50"}, "SSA autoantigen [2]": {"molecular_target": "SSA autoantigen", "experiment": "Athena assay, mAb 6.25 ug/ml; positive >50"}, "Sm autoantigen [3]": {"molecular_target": "Sm autoantigen", "experiment": "Athena assay, mAb 6.25 ug/ml; positive >50"}, "SSB autoantigen [4]": {"molecular_target": "SSB autoantigen", "experiment": "Athena assay, mAb 6.25 ug/ml; positive >50"}, "Histone autoantigen [5]": {"molecular_target": "Histone autoantigen", "experiment": "Athena assay, mAb 6.25 ug/ml; positive >50"}, "Scl 70 autoantigen [6]": {"molecular_target": "Scl 70 autoantigen", "experiment": "Athena assay, mAb 6.25 ug/ml; positive >50"}, "Jo 1 autoantigen [7]": {"molecular_target": "Jo 1 autoantigen", "experiment": "Athena assay, mAb 6.25 ug/ml; positive >50"}, "RNP autoantigen [8]": {"molecular_target": "RNP autoantigen", "experiment": "Athena assay, mAb 6.25 ug/ml; positive >50"}, "centromere B autoantigen [9]": {"molecular_target": "centromere B autoantigen", "experiment": "Athena assay, mAb 12.5 ug/ml; positive >50"}, "SSA autoantigen [10]": {"molecular_target": "SSA autoantigen", "experiment": "Athena assay, mAb 12.5 ug/ml; positive >50"}, "Sm autoantigen [11]": {"molecular_target": "Sm autoantigen", "experiment": "Athena assay, mAb 12.5 ug/ml; positive >50"}, "SSB autoantigen [12]": {"molecular_target": "SSB autoantigen", "experiment": "Athena assay, mAb 12.5 ug/ml; positive >50"}, "Histone autoantigen [13]": {"molecular_target": "Histone autoantigen", "experiment": "Athena assay, mAb 12.5 ug/ml; positive >50"}, "Scl 70 autoantigen [14]": {"molecular_target": "Scl 70 autoantigen", "experiment": "Athena assay, mAb 12.5 ug/ml; positive >50"}, "Jo 1 autoantigen [15]": {"molecular_target": "Jo 1 autoantigen", "experiment": "Athena assay, mAb 12.5 ug/ml; positive >50"}, "RNP autoantigen [16]": {"molecular_target": "RNP autoantigen", "experiment": "Athena assay, mAb 12.5 ug/ml; positive >50"}, "centromere B autoantigen [17]": {"molecular_target": "centromere B autoantigen", "experiment": "Athena assay, mAb 50 ug/ml; positive >50"}, "SSA autoantigen [18]": {"molecular_target": "SSA autoantigen", "experiment": "Athena assay, mAb 50 ug/ml; positive >50"}, "Sm autoantigen [19]": {"molecular_target": "Sm autoantigen", "experiment": "Athena assay, mAb 50 ug/ml; positive >50"}, "SSB autoantigen [20]": {"molecular_target": "SSB autoantigen", "experiment": "Athena assay, mAb 50 ug/ml; positive >50"}, "Histone autoantigen [21]": {"molecular_target": "Histone autoantigen", "experiment": "Athena assay, mAb 50 ug/ml; positive >50"}, "Scl 70 autoantigen [22]": {"molecular_target": "Scl 70 autoantigen", "experiment": "Athena assay, mAb 50 ug/ml; positive >50"}, "Jo 1 autoantigen [23]": {"molecular_target": "Jo 1 autoantigen", "experiment": "Athena assay, mAb 50 ug/ml; positive >50"}, "RNP autoantigen [24]": {"molecular_target": "RNP autoantigen", "experiment": "Athena assay, mAb 50 ug/ml; positive >50"}, "centromere B autoantigen [25]": {"molecular_target": "centromere B autoantigen", "experiment": "Athena assay, mAb 25 ug/ml; positive >50"}, "SSA autoantigen [26]": {"molecular_target": "SSA autoantigen", "experiment": "Athena assay, mAb 25 ug/ml; positive >50"}, "Sm autoantigen [27]": {"molecular_target": "Sm autoantigen", "experiment": "Athena assay, mAb 25 ug/ml; positive >50"}, "SSB autoantigen [28]": {"molecular_target": "SSB autoantigen", "experiment": "Athena assay, mAb 25 ug/ml; positive >50"}, "Histone autoantigen [29]": {"molecular_target": "Histone autoantigen", "experiment": "Athena assay, mAb 25 ug/ml; positive >50"}, "Scl 70 autoantigen [30]": {"molecular_target": "Scl 70 autoantigen", "experiment": "Athena assay, mAb 25 ug/ml; positive >50"}, "Jo 1 autoantigen [31]": {"molecular_target": "Jo 1 autoantigen", "experiment": "Athena assay, mAb 25 ug/ml; positive >50"}, "RNP autoantigen [32]": {"molecular_target": "RNP autoantigen", "experiment": "Athena assay, mAb 25 ug/ml; positive >50"}, "HCV E2 (HCV)": {"molecular_target": "HCV E2 (HCV)", "experiment": "Luminex assay, antibody 50 µg/ml"}, "[33]": {"molecular_target": "Influenza HA (Wisconsin) (influenza virus)", "experiment": "Luminex assay, antibody 50 µg/ml"}, "[34]": {"molecular_target": "A244gD+ gp120 (herpes simplex virus; HIV-1)", "sequence (Q69091 26-52)": "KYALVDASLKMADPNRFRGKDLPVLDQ", "experiment": "SPR"}, "A244 gD- gp120 (HIV-1)": {"molecular_target": "A244 gD- gp120 (HIV-1)", "experiment": "SPR"}, "[35]": {"molecular_target": "HV00044 (6240 TZ5 140C) (HIV-1)", "experiment": "SPR"}},
  "data": [
    {"substance": "CH04 (antibody)", "values": [
      {"measurement": "Autoreactivity (Athena)", "setting": "centromere B autoantigen [1]", "value": 6.5},
      {"measurement": "Autoreactivity (Athena)", "setting": "SSA autoantigen [2]", "value": 6},
      {"measurement": "Autoreactivity (Athena)", "setting": "Sm autoantigen [3]", "value": 3},
      {"measurement": "Autoreactivity (Athena)", "setting": "SSB autoantigen [4]", "value": 6},
      {"measurement": "Autoreactivity (Athena)", "setting": "Histone autoantigen [5]", "value": 9.5},
      {"measurement": "Autoreactivity (Athena)", "setting": "Scl 70 autoantigen [6]", "value": 1.5},
      {"measurement": "Autoreactivity (Athena)", "setting": "Jo 1 autoantigen [7]", "value": 2},
      {"measurement": "Autoreactivity (Athena)", "setting": "RNP autoantigen [8]", "value": 3},
      {"measurement": "Autoreactivity (Athena)", "setting": "centromere B autoantigen [9]", "value": 8},
      {"measurement": "Autoreactivity (Athena)", "setting": "SSA autoantigen [10]", "value": 7},
      {"measurement": "Autoreactivity (Athena)", "setting": "Sm autoantigen [11]", "value": 2.5},
      {"measurement": "Autoreactivity (Athena)", "setting": "SSB autoantigen [12]", "value": 4.5},
      {"measurement": "Autoreactivity (Athena)", "setting": "Histone autoantigen [13]", "value": 11},
      {"measurement": "Autoreactivity (Athena)", "setting": "Scl 70 autoantigen [14]", "value": 2},
      {"measurement": "Autoreactivity (Athena)", "setting": "Jo 1 autoantigen [15]", "value": 2.5},
      {"measurement": "Autoreactivity (Athena)", "setting": "RNP autoantigen [16]", "value": 4},
      {"measurement": "Autoreactivity (Athena)", "setting": "centromere B autoantigen [17]", "value": 18},
      {"measurement": "Autoreactivity (Athena)", "setting": "SSA autoantigen [18]", "value": 19},
      {"measurement": "Autoreactivity (Athena)", "setting": "Sm autoantigen [19]", "value": 3},
      {"measurement": "Autoreactivity (Athena)", "setting": "SSB autoantigen [20]", "value": 11},
      {"measurement": "Autoreactivity (Athena)", "setting": "Histone autoantigen [21]", "value": 26},
      {"measurement": "Autoreactivity (Athena)", "setting": "Scl 70 autoantigen [22]", "value": 3},
      {"measurement": "Autoreactivity (Athena)", "setting": "Jo 1 autoantigen [23]", "value": 5},
      {"measurement": "Autoreactivity (Athena)", "setting": "RNP autoantigen [24]", "value": 9},
      {"measurement": "Autoreactivity (Athena)", "setting": "centromere B autoantigen [25]", "value": 13},
      {"measurement": "Autoreactivity (Athena)", "setting": "SSA autoantigen [26]", "value": 11},
      {"measurement": "Autoreactivity (Athena)", "setting": "Sm autoantigen [27]", "value": 2},
      {"measurement": "Autoreactivity (Athena)", "setting": "SSB autoantigen [28]", "value": 8},
      {"measurement": "Autoreactivity (Athena)", "setting": "Histone autoantigen [29]", "value": 16},
      {"measurement": "Autoreactivity (Athena)", "setting": "Scl 70 autoantigen [30]", "value": 2},
      {"measurement": "Autoreactivity (Athena)", "setting": "Jo 1 autoantigen [31]", "value": 3},
      {"measurement": "Autoreactivity (Athena)", "setting": "RNP autoantigen [32]", "value": 6},
      {"measurement": "background substracted RFUs", "setting": "HCV E2 (HCV)", "value": 0.5, "unit": "RFU"},
      {"measurement": "background substracted RFUs", "setting": "[33]", "value": 2.5, "unit": "RFU"},
      {"measurement": "Kd", "setting": "[34]", "value": 25.5, "unit": "nM"},
      {"measurement": "Kd", "setting": "A244 gD- gp120 (HIV-1)", "value": 410, "unit": "nM"},
      {"measurement": "Kd", "setting": "[35]", "value": 360, "unit": "nM"}
    ]}
  ]
}
